Measured values taken from PMC4809751.

Molecular target: ZbmA, the zorbamycin (ZBM)-binding protein of Streptomyces flavoviridis ATCC21892 (unmodified, as cocrystallised with Cu(II)-ZBM) (Streptomyces flavoviridis ATCC21892)
Test: crystal structure

Substance: ZbmA, the zorbamycin (ZBM)-binding protein of Streptomyces flavoviridis ATCC21892 (unmodified, as cocrystallised with Cu(II)-ZBM) (natural protein)
- stoichiometry N: 2
